The target in assay [1] is T1, human complement C1s enzyme (activated C1s) (human, UniProt P09871 16-437; P09871 438-688).
T1 sequence 1: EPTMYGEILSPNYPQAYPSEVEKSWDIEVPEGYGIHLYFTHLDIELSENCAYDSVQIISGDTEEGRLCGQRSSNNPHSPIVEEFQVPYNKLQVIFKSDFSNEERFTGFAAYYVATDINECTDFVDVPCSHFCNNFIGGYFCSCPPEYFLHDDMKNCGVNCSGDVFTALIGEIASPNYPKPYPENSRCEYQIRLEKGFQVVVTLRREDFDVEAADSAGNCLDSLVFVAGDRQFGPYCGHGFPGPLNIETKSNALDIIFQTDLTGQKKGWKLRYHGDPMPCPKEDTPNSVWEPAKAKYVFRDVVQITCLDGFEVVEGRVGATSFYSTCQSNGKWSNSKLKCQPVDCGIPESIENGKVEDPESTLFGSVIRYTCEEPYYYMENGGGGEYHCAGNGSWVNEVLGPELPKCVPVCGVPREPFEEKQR
T1 sequence 2: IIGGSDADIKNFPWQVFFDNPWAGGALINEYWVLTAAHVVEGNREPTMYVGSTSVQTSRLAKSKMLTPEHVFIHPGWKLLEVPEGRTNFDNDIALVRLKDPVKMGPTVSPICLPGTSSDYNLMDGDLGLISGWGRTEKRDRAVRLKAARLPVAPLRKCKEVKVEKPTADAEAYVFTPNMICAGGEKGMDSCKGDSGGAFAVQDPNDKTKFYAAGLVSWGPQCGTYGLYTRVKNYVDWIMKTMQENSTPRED
The assay is described as follows: cell-based or functional assay.

Assay [2] has as its target T2, human complement factor Bb (human, UniProt P00751 260-764). The assay is described as follows: cell-based or functional assay.
Assay [3] has as its target T1, human complement C1s enzyme (activated …). The assay is described as follows: cell-based or functional assay. The source holds these as a separate data set.
In assay [4] the target is T2, human complement factor Bb. The assay is described as follows: cell-based or functional assay. The source holds these as a separate data set.
The target in assay [5] is T1, human complement C1s enzyme (activated …). The assay is described as follows: cell-based or functional assay. This is another data set of the same source.
The target in assay [6] is T2, human complement factor Bb. The assay is described as follows: cell-based or functional assay. The source holds these as a separate data set.
Assay [7] addresses T1, human complement C1s enzyme (activated …). The assay is described as follows: cell-based or functional assay. This is another data set of the same source.
Assay [8] deals with T2, human complement factor Bb. The assay is described as follows: cell-based or functional assay. The source holds these as a separate data set.
Assay [9] addresses T1, human complement C1s enzyme (activated …). The assay is described as follows: BLI (Octet), biotinylated target on streptavidin sensor.
The target in assay [10] is T2, human complement factor Bb. The assay is described as above.
In assay [11] the target is T1, human complement C1s enzyme (activated …). The assay is described as follows: BLI (Octet), biotinylated target on streptavidin sensor; protein purified to >98%. The text has this: (§1) Bio-layer interferometry (BLI) was used to assess the recombinant proteins' target engagement to and binding affinity for complement C1s enzyme (active C1s or “C1s” herein) and factor Bb (Bb) (Complement Technology, Tyler, TX, USA). C1s and Bb were biotinylated with EZ-Link™ Sulfo-NHS-LC-LC-Biotin (Thermo Fisher, Waltham, MA, USA) according to manufacturer instructions. Biotinylated C1s or Bb was loaded on Octet® Streptavidin (SA) Biosensors (Sartorius, Göttingen, Germany), followed by a concentration range of purified proteins. To assess dual target engagement, biotinylated active C1s or Bb was loaded onto sensors, followed by purified proteins (“first association phase”), followed by the non-captured complement target (Bb or active C1s, non-biotinylated; “second association phase”). The assays were performed at 30° C. using PBS with 0.1% Tween 20 as a diluent (FIG. 3).

The target of assay [12] is T2, human complement factor Bb. The description is as above.
From the text: as §1

The target of assay [13] is T1, human complement C1s enzyme (activated …). The assay is described as follows: BLI (Octet), biotinylated target on streptavidin sensor; partially purified protein.
From the text: as §1
(§2) The third expression construct, construct #9 (FIGS. 2B and 21), is composed of a bidirectional minCBA promoter driving expression of separate transcripts encoding human codon-optimized αBb scFab or αC1s scFab [αC1s scFab+αBb scFab], each followed by a bGH poly (A) signal.

The target in assay [14] is T2, human complement factor Bb. Described as above.
From the text: as §1, §2

The target in assay [15] is T2, human complement factor Bb. The assay is described as follows: SPR, purified protein.
Assay [16] deals with T2, human complement factor Bb. The assay is described as follows: cell-based or functional assay. The source holds these as a separate data set.
The target of assay [17] is T2, human complement factor Bb. The assay is described as follows: cell-based or functional assay. The source holds these as a separate data set.
Assay [18] addresses T2, human complement factor Bb. The assay is described as follows: BLI (Octet), biotinylated target on streptavidin sensor. The source holds these as a separate data set.
Assay [19] has as its target T2, human complement factor Bb. The assay is described as follows: SPR.
The target of the next assay is T3, cynomolgus Bb (cynomolgus, UniProt A0A2K5TZY3 260-763).
T3 construct: Named only in the sentence that gives the KD; also called cynomolgus target
The assay is described as follows: method not given.

In assay [20] the target is T2, human complement factor Bb. The assay is described as follows: BLI (Octet), biotinylated target on streptavidin sensor; mixture of the two scFabs from construct #9.
From the text: as §1

The target of assay [21] is T2, human complement factor Bb. The assay is described as follows: BLI (Octet), biotinylated target on streptavidin sensor; partially purified mixture of the two scFabs from construct #9; mixture of the two scFabs from construct #9.
From the text: as §1, §2

Assay [22] deals with T1, human complement C1s enzyme (activated …). The assay is described as follows: SPR.
Assay [23] shares this target. The assay is described as follows: cell-based or functional assay. The source holds these as a separate data set.

T2 sequence (P00751 260-764): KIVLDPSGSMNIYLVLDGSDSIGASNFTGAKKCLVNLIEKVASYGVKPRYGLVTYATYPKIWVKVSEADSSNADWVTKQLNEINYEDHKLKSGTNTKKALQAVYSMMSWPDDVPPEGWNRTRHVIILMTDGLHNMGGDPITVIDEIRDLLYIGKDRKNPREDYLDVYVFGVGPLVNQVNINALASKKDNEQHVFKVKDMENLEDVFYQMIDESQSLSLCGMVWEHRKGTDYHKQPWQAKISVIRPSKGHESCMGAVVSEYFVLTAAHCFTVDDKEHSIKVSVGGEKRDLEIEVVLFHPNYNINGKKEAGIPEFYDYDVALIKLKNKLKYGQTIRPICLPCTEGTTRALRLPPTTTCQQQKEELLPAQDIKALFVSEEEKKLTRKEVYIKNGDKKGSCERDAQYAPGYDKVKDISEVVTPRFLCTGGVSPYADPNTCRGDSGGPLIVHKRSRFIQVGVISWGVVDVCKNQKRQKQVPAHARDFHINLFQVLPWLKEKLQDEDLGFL
T3 sequence (A0A2K5TZY3 entry or part of it): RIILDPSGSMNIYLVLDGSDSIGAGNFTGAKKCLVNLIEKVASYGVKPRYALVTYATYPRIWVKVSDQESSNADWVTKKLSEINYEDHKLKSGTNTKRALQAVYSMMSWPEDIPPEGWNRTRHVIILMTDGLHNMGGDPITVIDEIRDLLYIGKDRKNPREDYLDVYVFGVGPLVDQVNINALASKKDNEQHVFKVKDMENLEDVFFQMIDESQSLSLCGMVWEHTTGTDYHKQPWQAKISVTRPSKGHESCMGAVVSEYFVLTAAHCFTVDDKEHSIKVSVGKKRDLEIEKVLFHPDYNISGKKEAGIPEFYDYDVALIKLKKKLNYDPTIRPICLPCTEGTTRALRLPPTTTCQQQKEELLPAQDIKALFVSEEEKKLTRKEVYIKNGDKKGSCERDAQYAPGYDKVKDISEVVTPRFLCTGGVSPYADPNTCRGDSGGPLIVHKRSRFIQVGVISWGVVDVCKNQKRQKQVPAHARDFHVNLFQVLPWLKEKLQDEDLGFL

B1: construct #14: αC1s scFab-(G4S)2-αBb scFv-CM (bispecific antibody)
chain: DIVLTQSPDSLAVSLGERATISCKASQSVDYDGDSYMNWYQEKPGQPPKILIYDASNLESGIPARFSGSGSGTDFTLTISSLEPEDFAIYYCQQSNEDPWTFGGGTKVEIKRTVAAPSVFIFPPSDEQLKSGTASVVCLLNNFYPREAKVQWKVDNALQSGNSQESVTEQDSKDSTYSLSSTLTLSKADYEKHKVYACEVTHQGLSSPVTKSFNRGECGGGGSGGGGSGGGGSGGGGSGGGGSGGGGSGGGGSQVQLVQSGAEVKKPGASVKLSCTASGFNIKDDYIHWVKKAPGQGLEWIGRIDPADGHTKYAPKFQVKVTITADTSTSTAYLELSSLRSEDTAVYYCARYGYGREVFDYWGQGTTVTVSSASTKGPSVFPLAPCSRSTSESTAALGCLVKDYFPEPVTVSWNSGALTSGVHTFPAVLQSSGLYSLSSVVTVPSSSLGTKTYTCNVDHKPSNTKVDKRVGGGGSGGGGSEVQLVESGGGLVKPGGSLRLSCAASGFTFSNYAMSWVREAPGKRLEWVATISNRGSYTYYPDSVKGRFTISRDNAKNSLYLQMNSLRAEDTALYYCARERPMDYWGQGTLVTVSSGGGGSGGGGSGGGGSDIQMTQSPSTLSASVGDRVTITCKASQDVGTAVAWYQKKPGKAPKLLIYWASTRHTGVPDRFSGSGSGTDFTLTISSLQAEDFAVYFCHQHSSNPLTFGQGTKLEIK
notes: Residues 1-20 were left out as the signal peptide, which is marked by boldface only
For B1, in [1], the “Wieslab CP IC50, fold of purified anti-C1s Fab” value is around 6 fold. In addition, the “Wieslab AP IC50, fold of purified anti-Bb Fab” value in [2] is around 6 fold. In addition, the “CP IC50 (Wieslab)” value in [3] is 38.6 nM. Besides, the “AP IC50 (Wieslab)” value in [4] stood at 551 nM. The “IC50 CP Wieslab EIA” value in [5] amounted to 5.9 nM. In addition, in assay [6], the “IC50 AP Wieslab EIA” value was 347 nM. The “IC50 CP (Wieslab)” value in [7] amounted to 38.6 nM. In addition, the “IC50 AP (Wieslab)” value in [8] amounted to 551 nM. The Kd in assay [9] stood at 1.4 nM; in [10] it was 2.5 nM; in assay [11] it was 1.3 nM; in assay [12] it was 4.2 nM; in [13] it was 1.4 nM; in assay [14], 2.5 nM. Further, the results for the koff in assay [9] and in assay [10] were 0.00049 s⁻¹ and 0.00017 s⁻¹, respectively. For the same molecule, the results for the kon in [9] and in assay [10] were 360000 M⁻¹ s⁻¹ and 70000 M⁻¹ s⁻¹, respectively.

B2: parental anti-Bb Fab (Fab, V domains shown)
VH: EVQLVESGGGLVKPGGSLRLSCAASGFTFSNYAMSWVRQAPGKRLEWVATISNRGSYTYYPDSVKGRFTISRDNAKNSLYLQMNSLRAEDTALYYCARERPMDYWGQGTLVTVSS
VL: DIQMTQSPSTLSASVGDRVTITCKASQDVGTAVAWYQQKPGKAPKLLIYWASTRHTGVPDRFSGSGSGTDFTLTISSLQAEDFAVYFCHQHSSNPLTFGQGTKLEIKR
notes: also called Purified anti-Bb Fab
As for B2, the Kd was determined as 2.7 nM in assay [15], 0.7 nM in assay [18] and 0.73 nM in assay [10]. Also, the “Wieslab alternative pathway IC50” value in assay [16] worked out at 144 nM. The “AP IC50 (Wieslab)” value in assay [4] was 99 nM. Also, the “IC50 AP (Wieslab)” value in [8] was found to be 144 nM. Moreover, in assay [17], the “IC50 (nM), complement activation with CP and AP activated simultaneously in vitro” value stood at 463 nM. The molecule further yielded a koff in assay [10] of 0.00051 s⁻¹. The kon in assay [10] worked out at 700000 M⁻¹ s⁻¹.

B3: parental anti-Bb IgG4 antibody VH6/Vκ7-IgG4v2 (antibody, V domains shown)
VH: B2 VH
VL: DIQMTQSPSTLSASVGDRVTITCKASQDVGTAVAWYQQKPGKAPKLLIYWASTRHTGVPDRFSGSGSGTDFTLTISSLQAEDFAVYFCHQHSSNPLTFGQGTKLEIK
notes: IgG4 (IgG4v2), from U.S. Pat. No. 11,242,382 and WO 2021/216458; full chains of the mAb are not; also called anti-Bb mAb
As to B3, binding in [19] was put at a Kd of 7.3 nM. Also, in assay [16], the “Wieslab alternative pathway IC50” value was determined as 190 nM.

B4: anti-Bb scFab (construct #4) (Fab)
chain: DIQMTQSPSTLSASVGDRVTITCKASQDVGTAVAWYQQKPGKAPKLLIYWASTRHTGVPDRFSGSGSGTDFTLTISSLQAEDFAVYFCHQHSSNPLTFGQGTKLEIKRTVAAPSVFIFPPSDEQLKSGTASVVCLLNNFYPREAKVQWKVDNALQSGNSQESVTEQDSKDSTYSLSSTLTLSKADYEKHKVYACEVTHQGLSSPVTKSFNRGECGGGGSGGGGSGGGGSGGGGSGGGGSGGGGSGGGGSEVQLVESGGGLVKPGGSLRLSCAASGFTFSNYAMSWVRQAPGKRLEWVATISNRGSYTYYPDSVKGRFTISRDNAKNSLYLQMNSLRAEDTALYYCARERPMDYWGQGTLVTVSSASTKGPSVFPLAPCSRSTSESTAALGCLVKDYFPEPVTVSWNSGALTSGVHTFPAVLQSSGLYSLSSVVTVPSSSLGTKTYTCNVDHKPSNTKVDKRV
notes: Single-chain Fab: LC-(G4S)7-HC (VH-CH1); there it stood in a mixture with the anti-C1s scFab; also called αBb scFab; Purified anti-Bb scFab
Take B4: the “Wieslab AP IC50 of #9-derived fragments, fold of purified anti-Bb Fab” value in [2] was around 3 fold. Also, the Kd was 3.7 nM in assay [15]; 14.8 nM with cynomolgus Bb; 0.7 nM in assay [10]; 0.7 nM in assay [12]; 0.8 nM in assay [20]; 0.9 nM in assay [21]. Further, the “Wieslab alternative pathway IC50” value in assay [16] was 190 nM. The “AP IC50 (Wieslab), mixture of scFabs from construct #9” value in assay [4] was found to be 224 nM. Besides, the “IC50 AP Wieslab EIA” value in assay [6] came to 193 nM. Further, the “IC50 AP (Wieslab)” value in [8] was found to be 193 nM. For the same molecule, the “IC50 AP (Wieslab), mixture of scFabs from construct #9” value in [8] was 224 nM. In assay [17], the “IC50 (nM), complement activation with CP and AP activated simultaneously in vitro” value came to 633 nM. Further, the results for the koff in assay [10] and in assay [20] were 0.00049 s⁻¹ and 0.0002 s⁻¹, respectively. Further, the kon came out at 670000 M⁻¹ s⁻¹ in assay [10] and 260000 M⁻¹ s⁻¹ in assay [20].

B5: parental anti-C1s IgG4 antibody VH3/Vκ2 (antibody, V domains shown)
VH: QVQLVQSGAEVKKPGASVKLSCTASGFNIKDDYIHWVKQAPGQGLEWIGRIDPADGHTKYAPKFQVKVTITADTSTSTAYLELSSLRSEDTAVYYCARYGYGREVFDYWGQGTTVTVSS
VL: DIVLTQSPDSLAVSLGERATISCKASQSVDYDGDSYMNWYQQKPGQPPKILIYDASNLESGIPARFSGSGSGTDFTLTISSLEPEDFAIYYCQQSNEDPWTFGGGTKVEIK
notes: IgG4, from WO 2018/071676; full chains of the mAb are not; also called anti-C1s mAb; VH3/VK2
B5 yielded a Kd in [22] of 1.5 nM. In assay [23], the “Wieslab classical pathway IC50” value stood at 22 nM.

Values taken from patent US20240401082A1 (Sanofi, published 2024).
